Experiments:
Assay in all cases: BLI
[1] = molecular target: R11K-CL (R11K cross-linked with Bis-NHS-PEG5 while protected by S2X259) (SARS-CoV-2 Wuhan Hu-1)
[2] = molecular target: R11K-PMD (R11K modified with NHS-PEG4-methyl while protected by S2X259) (SARS-CoV-2 Wuhan Hu-1)
[3] = molecular target: R11K (RBD 319-533 with 11 added lysines and the repackaging substitutions Y365F, F392W, V395I) (SARS-CoV-2 Wuhan Hu-1)
[4] = molecular target: R11K (RBD with 11 additional lysines and three repackaging substitutions) (SARS-CoV-2 Wuhan Hu-1)
[5] = molecular target: R11K-PMD (R11K modified with NHS-PEG4-methyl while protected on S2X259 resin) (SARS-CoV-2 Wuhan Hu-1)
[6] = molecular target: R11K-CL (R11K cross-linked with Bis-NHS-PEG5 while protected on S2X259 resin) (SARS-CoV-2 Wuhan Hu-1)

S2X259 IgG (antibody)
koff [1]: 0.001 s⁻¹
koff [2]: 0.00085 s⁻¹

CB6 (class 1 RBD-directed antibody)
koff [3]: 0.037 s⁻¹

S2X259 (class 4 RBD-directed antibody)
koff [3]: 0.0021 s⁻¹

CR3022 (class 4 RBD-directed antibody)
koff [3]: 0.059 s⁻¹

fragment antigen-binding region (Fab) of S2X259
Kd [4]: 1.5 nM

S309 (class 3 RBD-directed antibody)
koff [5]: 0.0019 s⁻¹
koff [3]: 0.00014 s⁻¹
koff [6]: 0.0021 s⁻¹

Reference: PMC11503491
